This data set deals with neutrophil elastase (HNE) (Homo sapiens, UniProt P08246 P08246:30-267). Nature of the data set: inhibition; blended ligand (end not specified for Ki); chromogenic substrate, 10 nM elastase, 2 mM MgCl2, 150 mM NaCl, 25 C; >50% inhibition at 70 nM for 3' conjugate. The text has this:
The assay for elastase inhibition is based on the use of a chromogenic tetrapeptide substrate. […] The rate of p-nitroanilide generation in the absence of inhibitor was used as the control.

By Ki is commonly meant the dissociation constant of the complex between target and ligand, obtained from inhibition or displacement. Low values mean a stronger hold on the target, high ones a looser hold on the target.

Sequence of neutrophil elastase (HNE) (P08246 30-267, one chain of several): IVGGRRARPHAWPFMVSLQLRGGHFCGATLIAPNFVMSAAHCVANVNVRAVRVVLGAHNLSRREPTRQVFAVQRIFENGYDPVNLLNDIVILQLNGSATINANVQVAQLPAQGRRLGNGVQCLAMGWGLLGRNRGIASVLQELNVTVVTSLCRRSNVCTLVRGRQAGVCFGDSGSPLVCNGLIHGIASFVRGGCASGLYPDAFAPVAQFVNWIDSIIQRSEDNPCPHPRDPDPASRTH

B1: DNA-17 3'-end peptide conjugate (ssDNA)
DNA: TAGCGATACTGCGTGGGTTGGGGCGGGTAGGGCCAGCAGTCTCGTGCGGTACTTGAGCA
modifications: 3' four 18-atom ethylene glycol spacers and thiol coupled to N-methoxysuccinyl-Ala-Ala-Pro-Val-chloromethyl ketone
B1 returned a Ki of 30 nM.

The values are drawn from US5683867, “Systematic evolution of ligands by exponential enrichment: blended SELEX” (NeXstar Pharmaceuticals, Inc.).
